Data: article PMC4215116

Test: Ni-NTA pull-down of conditioned medium, anti-myc blot
Conditions: glycan lost; control: wild-type ECM1-MH

B1: extracellular matrix protein 1 (ECM1): N444Q (protein)
parent chain: MGTTARAALVLTYLAVASAASEGGFTATGQRQLRPEHFQEVGYAAPPSPPLSRSLPMDHPDSSQHGPPFEGQSQVQPPPSQEATPLQQEKLLPAQLPAEKEVGPPLPQEAVPLQKELPSLQHPNEQKEGTPAPFGDQSHPEPESWNAAQHCQQDRSQGGWGHRLDGFPPGRPSPDNLNQICLPNRQHVVYGPWNLPQSSYSHLTRQGETLNFLEIGYSRCCHCRSHTNRLECAKLVWEEAMSRFCEAEFSVKTRPHWCCTRQGEARFSCFQEEAPQPHYQLRACPSHQPDISSGLELPFPPGVPTLDNIKNICHLRRFRSVPRNLPATDPLQRELLALIQLEREFQRCCRQGNNHTCTWKAWEDTLDKYCDREYAVKTHHHLCCRHPPSPTRDECFARRAPYPNYDRDILTIDIGRVTPNLMGHLCGNQRVLTKHKHIPGLIHNMTARCCDLPFPEQACCAEEEKLTFINDLCGPRRNIWRDPALCCYLSPGDEQVNCFNINYLRNVALVSGDTENAKGQGEQGSTGGTNISSTSEPKEE
expression_or_secretion: no change
